Laboratory results taken from the nanobody polyreactivity screen of Harvey et al. (2022).

Assay: yeast display, Sf9 membrane polyspecificity reagent, FACS + sequencing; frameworks hold sequencing errors
In short: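 A synthetic nanobody library was expressed on Saccharomyces cerevisiae BJ5465 by galactose induction for 36–48 hours. The library was stained for 1 hour at 4 °C with 10% biotinylated, detergent-solubilized Sf9 membrane reagent and enriched with streptavidin microbeads before FACS. Low and high (top ~1%) gates were set on anti-HA fluorescence for expression and streptavidin fluorescence for reagent binding, and each polyreactivity label reflects the gate of origin.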

Sequence | polyreactivity (PSR sort gate)
QVQLVESGGGLVQAGGSLRLSCAASGSTFRGYAMGWYRQAPGKERELVAAISRADITNYADSVKGRFTISRDNAKNTVYLQMNSLKPEDTAVYYCNAGVGARESDYWGQGTQVTVSS | low polyreactivity
QVQLVESGGGLVQAGGSLRLSCAASGRIFRFYAMGWYRHPPGKERELVAAIRRGGSTTYADSVKGRFTISRDNAKNTVYLQMNSLKPEDTAVYYCAATQYYRGYDYWGQGTQVTVSS | high polyreactivity
QVQLVESGGGLVQAGGSLRLSCAASGIIFEYYTMGWYRQAPGNERELVASITYDGDSTYYADSVKGRFTISRDHAKNTVYLQINSLKPEDTAVYFCAADYYYVYSSFGHYYWGQGTQVTVSS | low polyreactivity
QVQLVESGGGLVQAGGSLRLSCAASGSTFKYYAMGWYSQAPGKERELVAAISKGATRTYYADSVKGRFTISRDTAKNTVYLQMNSLKPEDTAVYYCAADRLKFPGEYDYWGQGTQVTVSS | high polyreactivity
QVQLVESGGGLVQAGGSLRLSCAASGGIFVTYAMGWYRQAPGKERELVAAITSGGTTYYADSVKGRFTISRDNAKNTVYLQMNSLKPEDTAVYYCAADPTNSYLEYDYWGQGTQVTVSS | low polyreactivity
QVQLVESGGGLVQAGGSLRLSCAASGTTFAGNAMGWYRQAPGKERELVAAITFSGGRTDYADSVKGCFTISRDNAKNTVYLQMNSLKPEDTAVYYCAAPADDTVHYQNYYWGQGTQVTVSS | low polyreactivity
QVQLVESGGGLVQAGGSLRLSCAASGSNLPYYAMGWYRQAPVKERELVAAISYSGGSTYYADSVKGRFTISRDNAKNPVFLQMYSLKPEVTAVYDCNAVVRSPAHGFWGQCTQVTVSS | high polyreactivity
QVQLVESWGGLVQAGGSLRLSCAASGYTFSYYAMGWYRPAPWKERELVAAITSTGSTYYADSVKVRFTISRDNAKNTVYLQMNSLKPEDTAVYYCNVDDATVGPVDYWGQGTQVTVSS | low polyreactivity
QVQLVESGGGLVQAGGSLRLSCAASGRIFSRNAMGWYRQAPGKEREFVAAISRRGTSTYYADSVKGRFTISRDNAKNTVYLQMNSLIPEDTAVYYCNAGGSPWYKPVYYRALYDYWGQGTQVTVSS | high polyreactivity
QVQLVESGGGLVQAGGSLRLSCAASGFTYYHNVMGWYRQAPGKERELVAAISSGGDTTYYADSVKGRFTISRDNAKNTVSLQKNSLKPEDTAVYYCNADRQIGRYYHFDYWGQGTQVSVSS | high polyreactivity
QVQLVESGGGLVQAGGSLRLSCAASGFIFVWNAMGWYRQAPGKERELVANIRDGGITYADSVKGRFTITRDNAKNTVYLQMNSLKPEDTAVYYCARTNFYRSYEPGGRFYNYDYWGQGTQVTVSS | low polyreactivity
QVQLVESGGGLVQAGGSLRLSCAASGRIFGRYAMGWYRQAPGKERELVAAITSGGRTSYADSVKGRFTISRDNAKNTVYLQMNSLKPEDTSVYYCNVVSRNSIRFDYWGQGTQVTVSS | high polyreactivity
QVQLVESGGGLVQAGGSLRLSCAASGRTFPYYAMGWYRQAPGKERELVAAISSSGGRTYYADSVKGRFTISRDNAKNTVYLQMNSLKREDTAVYYCNVDAWYPYQGFLVGYYYWGQGTQVTVSS | low polyreactivity
QVQLVESGGGLVQAGGSLRLSCAASGFIYRYNVMGWYRHAPGKEMEMVAAISTSGGRTYYADSVKGRFTISRDNAKNTVYLQMNSLKPEDSAVYYCNAVKSEVQKVGDGYYWGLGTQVTVSS | high polyreactivity
QVQLVESGGGLVQAGGRLRLSCAASGSIFSSNAMGWYRQAPGKERELVASIRGSGVSTYYADSVKGRFTISRDNAKNTVYLQMNSMKPEDTAVYYCAARYGRSYFGYYFWGQGTQVTVSS | high polyreactivity
QVQLEESGGGLVQAGGSLRLSCAASGLIFRYYVMGWYRQAPGKERELVAGITSSGGSTYYADSVKGRFTISRDNAKNTVYLQMNSLKPEDTAVYYCNKGGISGRDYWGQGTQVTVSS | high polyreactivity

Sequence | polyreactivity (PSR sort gate)
QVQLVESGGGLVQAGGSLRLSCAPSGRIIGTNAMRWYIQAPRKERELVAAITWSGGSTYYADSVKGRFTISRDNAKNTVFLQMISLKPEDTAVYYCAKDYGYGPRFYYWGQGTQLTVSS | high polyreactivity
QVQHVESGGGLVQAGGSLRLSCAASGSTFWGYAMGWYRQAPGKERELVAAINWIGGSDTFYADSVKGRFTISRDNAKNTVYLQMNSLKPEDTAVYYCAATYYNLPYSWGYDSWGQGSQVTVSS | low polyreactivity
QVQLEESGGGLVQAGGSLRLSCAASGSIYTYTMGWYRQAPGKERELVAAISWNGGRTYYADSVKGRFTISRDNAKNTVYLQMNSLKPEDTAVYYCNAAISYSYGYWGQGTQVTVSS | high polyreactivity
QVQLVESGGGIVQAGGSLRLSCAASGPIFGSYALRWARQAPGKERELVAAITRSGGSTYYADSVKGRFTISRDNAKNTVYLQMNILKPEDTAVYYCAAYFSFSGSAKFGYWGQGTQVTVSS | high polyreactivity
QVQLVESGGGLVQAGGSLRLSCAASGRIFYPYAMGWYRQAPGKERELVAAITSGGSTYYADSVKGRFTISRDNAKNTVYFQMNSLKPEDTAVYYCAADVVDLYLLDYWGQGTQVTVSS | low polyreactivity
QVQLVESGGGLVQAGGSLRLSCAASGSILDYYVMGCSRQSPGKERELVAAIRGGGSTYYADSVKGRFTISRDNAKNTVYLQMNSLKPEDTAVYYCAKDSQTARDFDYWGQGTQVTVSS | low polyreactivity
QVQLEETGGGLVQAGGSLRLSCAASGLTFGVYAMGRYRQAPGKEMELVAAITWRGDTTYYADSVKGRFTISRYNAKNTVYLQMNSLKPEDSAVYYCAKDVPYRRVRSEYWGQGTQVTVSS | low polyreactivity
QVQLVESGGCLVQAGGSLRLSSAASGRTFDHYAMGWYRQAPGKERELDAAITSGGSTYYADSVKGRFTISRDNAKNTVYLQMNSLKPEDTAVYYCNKDSSFWGSYIAQVNERDYWGQGTQVTVSS | low polyreactivity
QVQLVESGGGLVQAGGSLRLSCAASGSTFILNAMGWYRQAPGKERELVAAISRSGGNTYYADSVKGRFTISRDIAKNTVYLQMNSLKPEDTAVYYCAATRRSHYYYWGQGTQVTVSS | high polyreactivity
QVQLVESGGGLVQAGGSLRLSCAASGFNIGRNAMGWYRQAPGKERELVAGISISGGSTYYADSVKGRFTISRDNAKNTVYLQMNSLKPEDTAVYYCAAEYAYSLDPEEDYWGQGTQVTVSS | high polyreactivity
HVQLVESGGGLVQAGVSLRLSCAASGSIFSPYAMGGFRPAPGKERELLAAISSSGGSTYYADSVKRRFTISRDNAKNTVYLQMNSLKPEDTAVYYCAADSATGIFDRLNYWGQGTQVTVSS | high polyreactivity
QVQLVESGGGLVQAGGSLRVSCAASGFIIEVNSMAWYRQAPGKERELVARIDWSGGSTYYADSVKGRFTISRDNAKNTVFLQMNSLIPEDTAVYYCAVVASRSHTETPEYDYWGQGTQVTVSS | low polyreactivity
QVQLVESGGGLLQAGGSLRLSCAASGFTFRVNAMGWYRQAPGKERELVASITVSDARTYYADSVKGRFTISRDNAKNTVYLQMNSLKPEDTAVYYCAADYKGAFTTDWSSEYEYWGQGTQVTVSS | low polyreactivity
QVQLEDSGGGLVQAGGSLRLSCAASGFIFGSYTMGWYRQAPGKERELVAVITWSGSSTYYADSVKGRFTISRDNAKYPVYLQMNSLKPEDTAVYYCNAVKFGGYDYWGQGTQVTVSS | high polyreactivity
QVQLVESGGCLVQAGGSLRLSCAASGSTFPVYSMGWYRQAPGKERELVAAISYSGGSTNYADSVKGRFTISRDNAKNTVYLQMNSLKPEDTAVYYFAADTESHHEGNYWGQGTQVTVSS | low polyreactivity
QVQLVESGGGLVQAGGSLRLSCAASGSTFVNNAMGWSREARGKERELVAAIRSSDGRTYYADSVKGRFTISRDKAKNTVYLQMNSLKPEDTAVDYCATAVGTKYRTRIFEYYYWGQGTQVTVSS | high polyreactivity
